Test results reported in patent publication US7189689.

T1: lecithin:cholesterol acyltransferase (LCAT), purified from human plasma (human, UniProt P04180 25-440)
T1 sequence (looked up): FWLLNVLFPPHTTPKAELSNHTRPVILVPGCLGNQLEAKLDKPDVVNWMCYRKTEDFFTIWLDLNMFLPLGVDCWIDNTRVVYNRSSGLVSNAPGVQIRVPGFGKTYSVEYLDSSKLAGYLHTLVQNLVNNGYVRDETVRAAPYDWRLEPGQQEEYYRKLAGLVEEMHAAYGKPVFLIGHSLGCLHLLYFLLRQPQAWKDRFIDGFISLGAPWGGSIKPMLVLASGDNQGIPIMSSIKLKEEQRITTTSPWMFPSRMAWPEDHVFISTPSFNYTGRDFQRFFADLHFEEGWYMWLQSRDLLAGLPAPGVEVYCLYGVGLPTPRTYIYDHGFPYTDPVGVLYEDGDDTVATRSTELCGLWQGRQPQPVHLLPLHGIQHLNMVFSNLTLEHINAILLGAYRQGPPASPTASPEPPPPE


Molecular target: T1, lecithin:cholesterol acyltransferase …
Experiment: cell-based or functional assay

Binder	ACTIVITY (%) LCAT
EWLKAFYKKVLEKLKELF [peptide 247]	3%
DWLKAFYDKVFEKFKEFF [peptide 241]	8%
EWLKAFYEKVLEKLKELF [peptide 244]	5%
EWLKAEYEKVLEKLKELF [peptide 246]	4%
EWLKAEYEKVEEKLKELF [peptide 245]	4%
DWFKAFYDKVFEKFKEFF [peptide 237]	11%
DWFKAFYDKFFEKFKEFF [peptide 243]	5%
EWLEAFYKKVLEKLKELF [peptide 242]	7%
